B1: bsAb036 (bispecific antibody, not shown: small tags and cut ends; a dimerising Fc or GST)
heavy (part 1 of 2): EVQLVESGGGLVQPGGSLRLSCAASGFTFSRYWMSWVRQAPGKGLEWVANIKQDGSEKYYVDSVKGRFTISRDNAKNSLYLQMNSLRAEDTAVYYCAREGGWFGELAFDYWGQGTLVTVSS
heavy (part 2 of 2): GGGGSGGGGSGGGGSGGGGSQVQLVQSGAEVKKPGASVKLSCKASGYIFTRYYMYWVKQRPGQGLEWIGEINPNNGGTKFNEKFKNRATLTVDKSISTAYMELSRLRSDDTAVYYCSREDDYDGTPFAMDYWGQGTLVTVSSGGGGSGGGGSGGGGSGGGGSDIQMTQSPSSLSASVGDRVTITCHASQNINVWLSWYQQKPGKAPKLLIYKASNLHTGVPSRFTGSGSGTDFTFTISSLQPEDIATYYCQQGQTYPYTFGQGTKLEIK
heavy: B1 heavy (part 2 of 2)
light: EIVLTQSPGTLSLSPGERATLSCRASQRVSSSYLAWYQQKPGQAPRLLIYDASSRATGIPDRFSGSGSGTDFTLTISRLEPEDFAVYYCQQYGSLPWTFGQGTKVEIKRTVAAPSVFIFPPSDEQLKSGTASVVCLLNNFYPREAKVQWKVDNALQSGNSQESVTEQDSKDSTYSLSSTLTLSKADYEKHKVYACEVTHQGLSSPVTKSFNRGEC
B2: bsAb041 (bispecific antibody, not shown: small tags and cut ends; a dimerising Fc or GST)
heavy (part 1 of 2): B1 heavy (part 1 of 2)
heavy (part 2 of 2): GGGGSGGGGSGGGGSGGGGSDIQMTQSPSSLSASVGDRVTITCHASQNINVWLSWYQQKPGKAPKLLIYKASNLHTGVPSRFTGSGSGTDFTFTISSLQPEDIATYYCQQGQTYPYTFGQGTKLEIKGGGGSGGGGSGGGGSGGGGSQVQLVQSGAEVKKPGASVKLSCKASGYIFTRYYMYWVKQRPGQGLEWIGEINPNNGGTKFNEKFKNRATLTVDKSISTAYMELSRLRSDDTAVYYCSREDDYDGTPFAMDYWGQGTLVTVSS
heavy: B2 heavy (part 2 of 2)
light: B1 light
B3: bsAb054 (bispecific antibody, not shown: small tags and cut ends)
heavy (part 1 of 2): B1 heavy (part 1 of 2)
heavy (part 2 of 2): B1 heavy (part 2 of 2)
heavy: B1 heavy (part 1 of 2)
light: B1 light
B4: bsAb069 (bispecific antibody, not shown: small tags and cut ends; a dimerising Fc or GST)
heavy 1: B1 heavy (part 1 of 2)
heavy 2: DIQMTQSPSSLSASVGDRVTITCHASQNINVWLSWYQQKPGKAPKLLIYKASNLHTGVPSRFTGSGSGTDFTFTISSLQPEDIATYYCQQGQTYPYTFGQGTKLEIKGGGGSGGGGSGGGGSGGGGSQVQLVQSGAEVKKPGASVKLSCKASGYIFTRYYMYWVKQRPGQGLEWIGEINPNNGGTKFNEKFKNRATLTVDKSISTAYMELSRLRSDDTAVYYCSREDDYDGTPFAMDYWGQGTLVTVSSGGGGSGGGGSGGGGSGGGGS
light: EIVLTQSPGTLSLSPGERATLSCRASQRVSSSYLAWYQQKPGQAPRLLIYDASSRATGIPDRFSGSGSGTDFTLTISRLEPEDFAVYYCQQYGSLPWTFGQGTKVEIKRTVAAPSVFIFPPSDEQLKSGTASVVCLLNNFYPREAKVQWKVDNALQSGNSQESVTEQDSKDSTYSLSSTLTLSKADYEKHKVYACEVTHQGLSSPVTKSFNRGECGGGGSGGGGSGGGGSGGGGSQVQLVQSGAEVKKPGASVKLSCKASGYIFTRYYMYWVKQRPGQGLEWIGEINPNNGGTKFNEKFKNRATLTVDKSISTAYMELSRLRSDDTAVYYCSREDDYDGTPFAMDYWGQGTLVTVSSGGGGSGGGGSGGGGSGGGGSDIQMTQSPSSLSASVGDRVTITCHASQNINVWLSWYQQKPGKAPKLLIYKASNLHTGVPSRFTGSGSGTDFTFTISSLQPEDIATYYCQQGQTYPYTFGQGTKLEIK
B5: bsAb070 (bispecific antibody, not shown: small tags and cut ends; a dimerising Fc or GST)
heavy 1: B1 heavy (part 1 of 2)
heavy 2: QVQLVQSGAEVKKPGASVKLSCKASGYIFTRYYMYWVKQRPGQGLEWIGEINPNNGGTKFNEKFKNRATLTVDKSISTAYMELSRLRSDDTAVYYCSREDDYDGTPFAMDYWGQGTLVTVSSGGGGSGGGGSGGGGSGGGGSDIQMTQSPSSLSASVGDRVTITCHASQNINVWLSWYQQKPGKAPKLLIYKASNLHTGVPSRFTGSGSGTDFTFTISSLQPEDIATYYCQQGQTYPYTFGQGTKLEIKGGGGSGGGGSGGGGSGGGGS
light: EIVLTQSPGTLSLSPGERATLSCRASQRVSSSYLAWYQQKPGQAPRLLIYDASSRATGIPDRFSGSGSGTDFTLTISRLEPEDFAVYYCQQYGSLPWTFGQGTKVEIKRTVAAPSVFIFPPSDEQLKSGTASVVCLLNNFYPREAKVQWKVDNALQSGNSQESVTEQDSKDSTYSLSSTLTLSKADYEKHKVYACEVTHQGLSSPVTKSFNRGECGGGGSGGGGSGGGGSGGGGSDIQMTQSPSSLSASVGDRVTITCHASQNINVWLSWYQQKPGKAPKLLIYKASNLHTGVPSRFTGSGSGTDFTFTISSLQPEDIATYYCQQGQTYPYTFGQGTKLEIKGGGGSGGGGSGGGGSGGGGSQVQLVQSGAEVKKPGASVKLSCKASGYIFTRYYMYWVKQRPGQGLEWIGEINPNNGGTKFNEKFKNRATLTVDKSISTAYMELSRLRSDDTAVYYCSREDDYDGTPFAMDYWGQGTLVTVSS
B6: ICT01 (antibody, V domains shown)
VH: QVQLVQSGAEVKKPGASVKLSCKASGYIFTRYYMYWVKQRPGQGLEWIGEINPNNGGTKFNEKFKNRATLTVDKSISTAYMELSRLRSDDTAVYYCSREDDYDGTPFAMDYWGQGTLVTVSS
VL: DIQMTQSPSSLSASVGDRVTITCHASQNINVWLSWYQQKPGKAPKLLIYKASNLHTGVPSRFTGSGSGTDFTFTISSLQPEDIATYYCQQGQTYPYTFGQGTKLEIK
B7: bsAb010 (bispecific antibody)
heavy: QVQLVQSGAEVKKPGASVKLSCKASGYIFTRYYMYWVKQRPGQGLEWIGEINPNNGGTKFNEKFKNRATLTVDKSISTAYMELSRLRSDDTAVYYCSREDDYDGTPFAMDYWGQGTLVTVSSASTKGPSVFPLAPSSKSTSGGTAALGCLVKDYFPEPVTVSWNSGALTSGVHTFPAVLQSSGLYSLSSVVTVPSSSLGTQTYICNVNHKPSNTKVDKRVEPKSCDKTHTCPPCPAPEFEGGPSVFLFPPKPKDTLMISRTPEVTCVVVDVSHEDPEVKFNWYVDGVEVHNAKTKPREEQYNSTYRVVSVLTVLHQDWLNGKEYKCKVSNKALPASIEKTISKAKGQPREPQVYTLPPSREEMTKNQVSLTCLVKGFYPSDIAVEWESNGQPENNYKTTPPVLDSDGSFFLYSKLTVDKSRWQQGNVFSCSVMHEALHNHYTQKSLSLSPG
light: not shown
B8: bsAb014 (bispecific antibody)
heavy: B7 heavy
light: not shown
B9: bsAb018 (bispecific antibody)
heavy: EIVLTQSPATLSLSPGERATLSCRASKGVSTSGYSYLHWYQQKPGQAPRLLIYLASYLESGVPARFSGSGSGTDFTLTISSLEPEDFAVYYCQHSRDLPLTFGGGTKVEIKGGGGSGGGGSGGGGSGGGGSQVQLVQSGVEVKKPGASVKVSCKASGYTFTNYYMYWVRQAPGQGLEWMGGINPSNGGTNFNEKFKNRVTLTTDSSTTTAYMELKSLQFDDTAVYYCARRDYRFDMGFDYWGQGTTVTVSSGGGGSGGGGSGGGGSGGGGSQVQLVQSGAEVKKPGASVKLSCKASGYIFTRYYMYWVKQRPGQGLEWIGEINPNNGGTKFNEKFKNRATLTVDKSISTAYMELSRLRSDDTAVYYCSREDDYDGTPFAMDYWGQGTLVTVSSASTKGPSVFPLAPSSKSTSGGTAALGCLVKDYFPEPVTVSWNSGALTSGVHTFPAVLQSSGLYSLSSVVTVPSSSLGTQTYICNVNHKPSNTKVDKRVEPKSCDKTHTCPPCPAPEFEGGPSVFLFPPKPKDTLMISRTPEVTCVVVDVSHEDPEVKFNWYVDGVEVHNAKTKPREEQYNSTYRVVSVLTVLHQDWLNGKEYKCKVSNKALPASIEKTISKAKGQPREPQVYTLPPSREEMTKNQVSLTCLVKGFYPSDIAVEWESNGQPENNYKTTPPVLDSDGSFFLYSKLTVDKSRWQQGNVFSCSVMHEALHNHYTQKSLSLSPG
light: not shown

Target: BTN3A expressed at the cell surface (human), O00481
Sequence (O00481 30-513): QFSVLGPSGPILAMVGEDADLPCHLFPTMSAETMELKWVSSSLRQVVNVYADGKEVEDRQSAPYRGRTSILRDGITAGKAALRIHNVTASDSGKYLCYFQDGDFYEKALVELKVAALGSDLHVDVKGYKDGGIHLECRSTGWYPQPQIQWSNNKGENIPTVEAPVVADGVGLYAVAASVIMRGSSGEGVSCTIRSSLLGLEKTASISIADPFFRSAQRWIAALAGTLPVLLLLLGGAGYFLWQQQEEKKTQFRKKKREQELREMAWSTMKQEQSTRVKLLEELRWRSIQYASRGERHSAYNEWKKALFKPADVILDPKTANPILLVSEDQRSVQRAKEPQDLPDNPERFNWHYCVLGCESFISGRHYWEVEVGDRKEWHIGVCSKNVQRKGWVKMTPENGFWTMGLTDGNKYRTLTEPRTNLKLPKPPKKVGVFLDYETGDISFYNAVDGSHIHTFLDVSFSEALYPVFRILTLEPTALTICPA
Test: cell-based or functional assay

Binder | Jurkat-Vy9Vo2 TCR MOP activation at 0.5 nM (fold-change to medium) | Jurkat-Vy9Vo2 TCR MOP activation at 5 nM (fold-change to medium) | dose at which Jurkat-Vγ9Vδ2 TCR MOP activation was evident [nM] | increase in CD107ab expression on Vγ9Vδ2 T cells co-cultured with SKOV3 cells, 0.1 nM [fold]
B1 | 0.9 | 0.9 |  | 
B2 | 0.9 | 1 |  | 
B3 | 2.8 | 1 |  | 
B4 | 2.4 | 3.8 |  | 
B5 | 1.5 | 1.3 |  | 
B6 | 12.5 | 11.7 | 0.05 | 1.9
B7 | 5.3 | 4.8 |  | 
B8 | 6.4 | 4.6 |  | 
B9 | 1.1 | 1.7 |  | 

— US20260265379A1
